From publication PMC6191937 (Cell, 2018)

Target: T1, EGFP-MOV10 (human, UniProt Q9HCE1 1-1003)
T1 sequence: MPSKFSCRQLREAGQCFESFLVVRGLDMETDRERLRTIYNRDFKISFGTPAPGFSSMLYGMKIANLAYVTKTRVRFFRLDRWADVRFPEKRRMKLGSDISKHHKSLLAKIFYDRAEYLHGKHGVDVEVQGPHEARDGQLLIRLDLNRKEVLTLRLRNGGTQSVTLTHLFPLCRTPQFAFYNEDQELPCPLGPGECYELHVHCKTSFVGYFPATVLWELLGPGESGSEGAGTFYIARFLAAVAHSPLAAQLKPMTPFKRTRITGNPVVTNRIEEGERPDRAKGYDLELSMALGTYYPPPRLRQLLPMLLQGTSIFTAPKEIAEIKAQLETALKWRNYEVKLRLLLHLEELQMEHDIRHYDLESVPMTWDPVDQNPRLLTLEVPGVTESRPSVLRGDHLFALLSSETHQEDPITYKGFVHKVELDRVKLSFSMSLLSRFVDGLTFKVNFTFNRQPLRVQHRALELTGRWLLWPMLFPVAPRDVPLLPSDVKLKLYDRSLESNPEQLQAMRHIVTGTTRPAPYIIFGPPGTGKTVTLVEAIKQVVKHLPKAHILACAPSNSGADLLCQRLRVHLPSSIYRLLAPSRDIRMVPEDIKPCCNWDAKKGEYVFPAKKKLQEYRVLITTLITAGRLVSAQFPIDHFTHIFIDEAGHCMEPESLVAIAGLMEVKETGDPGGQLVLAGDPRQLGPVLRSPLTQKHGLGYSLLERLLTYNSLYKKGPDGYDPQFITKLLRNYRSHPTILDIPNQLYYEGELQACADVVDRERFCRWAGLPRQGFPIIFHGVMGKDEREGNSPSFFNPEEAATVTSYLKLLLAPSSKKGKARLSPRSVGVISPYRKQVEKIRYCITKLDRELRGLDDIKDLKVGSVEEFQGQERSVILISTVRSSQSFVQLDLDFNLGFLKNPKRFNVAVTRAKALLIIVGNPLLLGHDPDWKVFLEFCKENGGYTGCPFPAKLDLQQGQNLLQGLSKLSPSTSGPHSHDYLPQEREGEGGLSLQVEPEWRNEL
Experiment: co-IP

fold enrichment in the co-IP relative to TUT7: ~10 fold
B1: TUT4 (natural protein)
chain: MEESKTLKSENHEPKKNVICEESKAVQVIGNQTLKARNDKSVKEIENSSPNRNSSKKNKQNDICIEKTEVKSCKVNAANLPGPKDLGLVLRDQSHCKAKKFPNSPVKAEKATISQAKSEKATSLQAKAEKSPKSPNSVKAEKASSYQMKSEKVPSSPAEAEKGPSLLLKDMRQKTELQQIGKKIPSSFTSVDKVNIEAVGGEKCALQNSPRSQKQQTCTDNTGDSDDSASGIEDVSDDLSKMKNDESNKENSSEMDYLENATVIDESALTPEQRLGLKQAEERLERDHIFRLEKRSPEYTNCRYLCKLCLIHIENIQGAHKHIKEKRHKKNILEKQEESELRSLPPPSPAHLAALSVAVIELAKEHGITDDDLRVRQEIVEEMSKVITTFLPECSLRLYGSSLTRFALKSSDVNIDIKFPPKMNHPDLLIKVLGILKKNVLYVDVESDFHAKVPVVVCRDRKSGLLCRVSAGNDMACLTTDLLTALGKIEPVFIPLVLAFRYWAKLCYIDSQTDGGIPSYCFALMVMFFLQQRKPPLLPCLLGSWIEGFDPKRMDDFQLKGIVEEKFVKWECNSSSATEKNSIAEENKAKADQPKDDTKKTETDNQSNAMKEKHGKSPLALETPNRVSLGQLWLELLKFYTLDFALEEYVICVRIQDILTRENKNWPKRRIAIEDPFSVKRNVARSLNSQLVYEYVVERFRAAYRYFACPQTKGGNKSTVDFKKREKGKISNKKPVKSNNMATNGCILLGETTEKINAEREQPVQCDEMDCTSQRCIIDNNNLLVNELDFADHGQDSSSLSTSKSSEIEPKLDKKQDDLAPSETCLKKELSQCNCIDLSKSPDPDKSTGTDCRSNLETESSHQSVCTDTSATSCNCKATEDASDLNDDDNLPTQELYYVFDKFILTSGKPPTIVCSICKKDGHSKNDCPEDFRKIDLKPLPPMTNRFREILDLVCKRCFDELSPPCSEQHNREQILIGLEKFIQKEYDEKARLCLFGSSKNGFGFRDSDLDICMTLEGHENAEKLNCKEIIENLAKILKRHPGLRNILPITTAKVPIVKFEHRRSGLEGDISLYNTLAQHNTRMLATYAAIDPRVQYLGYTMKVFAKRCDIGDASRGSLSSYAYILMVLYFLQQRKPPVIPVLQEIFDGKQIPQRMVDGWNAFFFDKTEELKKRLPSLGKNTESLGELWLGLLRFYTEEFDFKEYVISIRQKKLLTTFEKQWTSKCIAIEDPFDLNHNLGAGVSRKMTNFIMKAFINGRKLFGTPFYPLIGREAEYFFDSRVLTDGELAPNDRCCRVCGKIGHYMKDCPKRKSLLFRLKKKDSEEEKEGNEEEKDSRDVLDPRDLHDTRDFRDPRDLRCFICGDAGHVRRECPEVKLARQRNSSVAAAQLVRNLVNAQQVAGSAQQQGDQSIRTRQSSECSESPSYSPQPQPFPQNSSQSAAITQPSSQPGSQPKLGPPQQGAQPPHQVQMPLYNFPQSPPAQYSPMHNMGLLPMHPLQIPAPSWPIHGPVIHSAPGSAPSNIGLNDPSIIFAQPAARPVAIPNTSHDGHWPRTVAPNSLVNSGAVGNSEPGFRGLTPPIPWEHAPRPHFPLVPASWPYGLHQNFMHQGNARFQPNKPFYTQDRCATRRCRERCPHPPRGNVSE
